Biological target: POLRMT.STREP2 (POLRMT carrying a FLAG and a STREP2 binding group) (human, UniProt O00411 42-1230)
Assay: pull-down

Chain of POLRMT.STREP2 (POLRMT carrying a FLAG and a STREP2 binding group) (O00411 42-1230): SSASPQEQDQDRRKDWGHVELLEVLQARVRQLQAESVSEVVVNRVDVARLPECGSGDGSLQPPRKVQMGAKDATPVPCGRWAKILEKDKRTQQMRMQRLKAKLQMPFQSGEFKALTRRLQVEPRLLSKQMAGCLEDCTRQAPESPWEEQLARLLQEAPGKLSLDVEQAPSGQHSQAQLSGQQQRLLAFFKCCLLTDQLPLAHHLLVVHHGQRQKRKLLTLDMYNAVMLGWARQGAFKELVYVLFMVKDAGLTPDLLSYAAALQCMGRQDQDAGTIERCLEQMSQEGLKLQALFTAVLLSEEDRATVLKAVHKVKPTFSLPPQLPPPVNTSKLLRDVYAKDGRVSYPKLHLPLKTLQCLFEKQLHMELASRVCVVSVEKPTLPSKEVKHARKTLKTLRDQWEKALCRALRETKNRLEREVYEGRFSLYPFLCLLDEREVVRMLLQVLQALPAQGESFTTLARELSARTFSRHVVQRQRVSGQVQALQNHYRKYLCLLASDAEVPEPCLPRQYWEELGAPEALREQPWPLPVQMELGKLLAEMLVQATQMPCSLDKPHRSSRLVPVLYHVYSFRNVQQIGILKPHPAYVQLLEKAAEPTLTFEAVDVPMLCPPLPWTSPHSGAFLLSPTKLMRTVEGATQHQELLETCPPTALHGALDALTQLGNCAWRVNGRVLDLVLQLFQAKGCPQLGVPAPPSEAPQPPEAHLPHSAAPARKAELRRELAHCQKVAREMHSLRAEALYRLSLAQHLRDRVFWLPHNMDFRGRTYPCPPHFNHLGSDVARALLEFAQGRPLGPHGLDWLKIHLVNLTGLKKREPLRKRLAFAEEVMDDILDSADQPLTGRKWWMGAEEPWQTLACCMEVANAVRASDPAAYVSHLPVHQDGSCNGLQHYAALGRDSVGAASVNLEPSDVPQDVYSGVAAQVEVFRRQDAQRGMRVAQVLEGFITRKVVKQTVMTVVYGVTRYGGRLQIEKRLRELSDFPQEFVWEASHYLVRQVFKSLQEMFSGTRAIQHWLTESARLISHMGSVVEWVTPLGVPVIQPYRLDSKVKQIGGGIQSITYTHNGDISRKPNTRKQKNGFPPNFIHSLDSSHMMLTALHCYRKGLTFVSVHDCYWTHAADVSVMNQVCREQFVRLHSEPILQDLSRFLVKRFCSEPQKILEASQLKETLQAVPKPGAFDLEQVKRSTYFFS

amount in the POLRMT.STREP2 peak elution fractions relative to TFAM: 2 fold
amount in the POLRMT.STREP2 peak elution fractions relative to TFB2M: 5 fold
B1: TEFM (transcription elongation factor of mitochondria), endogenous (natural protein, human (endogenous in HEK 293T), UniProt Q96QE5 36-360, looked up)
chain: KSTTPKKITPNVTFCDENAKEPENALDKLFSSEQQASILHVLNTASTKELEAFRLLRGRRSINIVEHRENFGPFQNLESLMNVPLFKYKSTVQVCNSILCPKTGREKRKSPENRFLRKLLKPDIERERLKAVNSIISIVFGTRRIAWAHLDRKLTVLDWQQSDRWSLMRGIYSSSVYLEEISSIISKMPKADFYVLEKTGLSIQNSSLFPILLHFHIMEAMLYALLNKTFAQDGQHQVLSMNRNAVGKHFELMIGDSRTSGKELVKQFLFDSILKADPRVFFPSDKIVHYRQMFLSTELQRVEELYDSLLQAIAFYELAVFDSQP
